Measured values reported in patent publication US20240409647A1 (SINOMAB BIOSCIENCE, published 2024).

Key:
[1] = molecular target: T1, human IL-17RB protein (recombinant, R&D systems) (human); experiment: BLI (Octet RED96), SM17 captured via anti-human Fab CH1, IL17RB in solution; trial 2
T1 construct: Bought protein; also called hIL17RB
T1 sequence (Q9NRM6 whole entry, looked up): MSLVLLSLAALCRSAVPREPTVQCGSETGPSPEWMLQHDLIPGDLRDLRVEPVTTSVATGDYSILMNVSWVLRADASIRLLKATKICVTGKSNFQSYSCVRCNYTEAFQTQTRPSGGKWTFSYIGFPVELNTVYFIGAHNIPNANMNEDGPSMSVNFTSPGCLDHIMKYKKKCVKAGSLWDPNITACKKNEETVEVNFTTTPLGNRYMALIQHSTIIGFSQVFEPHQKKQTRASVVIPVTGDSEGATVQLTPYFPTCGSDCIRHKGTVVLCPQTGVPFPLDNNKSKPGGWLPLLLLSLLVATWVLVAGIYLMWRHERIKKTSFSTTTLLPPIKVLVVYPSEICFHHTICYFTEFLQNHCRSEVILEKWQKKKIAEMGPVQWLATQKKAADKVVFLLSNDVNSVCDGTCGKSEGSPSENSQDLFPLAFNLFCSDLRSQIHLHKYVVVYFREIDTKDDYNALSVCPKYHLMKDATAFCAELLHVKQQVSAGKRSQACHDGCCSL
Source text: Irrelevant antibody (SM03, anti-human CD22 chimeric IgG1 antibody, SinoMab BioScience Limited) was used as the control reference.

[2] = molecular target: T2, human IL-17 receptor subunit E (human, UniProt Q8NFR9 24-454, limits assumed); experiment: ELISA, coated receptor; SM17 at 0.08 µg/mL; well 2
T2 construct: also called hIL17RE
T2 sequence (looked up): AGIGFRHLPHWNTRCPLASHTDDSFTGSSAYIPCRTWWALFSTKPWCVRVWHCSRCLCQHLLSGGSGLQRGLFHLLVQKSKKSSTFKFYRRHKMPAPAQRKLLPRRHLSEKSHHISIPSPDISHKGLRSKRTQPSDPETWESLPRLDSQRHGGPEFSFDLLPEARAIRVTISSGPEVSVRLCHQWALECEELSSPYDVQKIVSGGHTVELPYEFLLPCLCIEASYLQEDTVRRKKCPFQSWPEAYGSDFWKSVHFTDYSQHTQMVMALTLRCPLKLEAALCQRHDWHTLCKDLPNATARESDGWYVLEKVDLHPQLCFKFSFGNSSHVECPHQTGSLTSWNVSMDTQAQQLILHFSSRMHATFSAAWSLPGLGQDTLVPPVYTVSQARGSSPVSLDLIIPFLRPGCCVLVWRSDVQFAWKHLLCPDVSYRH

[3] = molecular target: T1, human IL-17RB protein (recombinant, R&D …); experiment: ELISA, coated receptor; SM17 at 0.08 µg/mL; well 2
[4] = molecular target: T3, human IL-17 receptor subunit D (human, UniProt Q8NFM7 28-299, limits assumed); experiment: ELISA, coated receptor; SM17 at 0.08 µg/mL; well 2
T3 construct: also called IL17RD; hIL 17RD
T3 sequence (looked up): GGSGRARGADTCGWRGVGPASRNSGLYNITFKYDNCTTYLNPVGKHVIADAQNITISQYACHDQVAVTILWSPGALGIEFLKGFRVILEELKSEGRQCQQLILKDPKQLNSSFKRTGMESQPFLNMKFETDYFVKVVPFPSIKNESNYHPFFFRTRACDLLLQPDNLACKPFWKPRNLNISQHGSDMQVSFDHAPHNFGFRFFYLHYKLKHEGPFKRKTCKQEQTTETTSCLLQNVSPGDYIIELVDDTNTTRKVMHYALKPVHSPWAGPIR

[5] = molecular target: T4, human IL-17 receptor subunit C (human, UniProt Q8NAC3-2 21-467, limits assumed); experiment: ELISA, coated receptor; SM17 at 0.08 µg/mL; well 2
T4 construct: also called IL17RC; hIL17RC
T4 sequence (looked up): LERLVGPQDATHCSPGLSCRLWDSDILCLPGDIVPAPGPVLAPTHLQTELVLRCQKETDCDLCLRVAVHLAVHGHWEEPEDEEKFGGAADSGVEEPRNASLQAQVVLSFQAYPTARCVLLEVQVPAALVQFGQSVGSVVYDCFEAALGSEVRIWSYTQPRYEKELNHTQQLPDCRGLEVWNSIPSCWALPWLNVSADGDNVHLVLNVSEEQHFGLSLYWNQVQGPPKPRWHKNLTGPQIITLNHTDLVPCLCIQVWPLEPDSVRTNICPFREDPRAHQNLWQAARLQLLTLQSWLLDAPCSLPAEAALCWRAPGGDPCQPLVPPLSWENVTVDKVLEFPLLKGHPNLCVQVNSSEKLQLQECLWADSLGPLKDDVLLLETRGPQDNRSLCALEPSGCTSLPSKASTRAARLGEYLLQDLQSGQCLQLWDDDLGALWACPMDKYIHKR

[6] = molecular target: T5, human IL-17 receptor subunit A (human, UniProt Q96F46 33-320); experiment: ELISA, coated receptor; SM17 at 0.08 µg/mL; well 2
T5 construct: also called IL17RA; hIL17RA

[7] = molecular target: T2, human IL-17 receptor subunit E; experiment: ELISA, coated receptor; SM17 at 0.0032 µg/mL; well 2
[8] = molecular target: T1, human IL-17RB protein (recombinant, R&D …); experiment: as above
[9] = molecular target: T3, human IL-17 receptor subunit D; experiment: as above
[10] = molecular target: T4, human IL-17 receptor subunit C; experiment: as above
[11] = molecular target: T5, human IL-17 receptor subunit A; experiment: as above

B1: SM17 (antibody, human IgG4 S228P, kappa, V domains shown)
VH: QVQLVQSGAEVKKPGASVKVSCKASGYTFISYWMNWVRQAPGQGLEWMGRIDPYDSEIQYNQKFKDRVTMTRDTSISTAYMELSRLRSDDTAVYYCARSGGFDWFAYWGQGTLVTVSS
VL: DIQMTQSPSSLSASVGDRVTITCRASENINSNLAWYQQKPGKAPKLLLYDVTNLADGVPSRFSGSGSGTDYTLTISSLQPEDFATYYCQHFWGPPYTFGGGTKVEIKR
notes: other paragraphs and claim 15 call the same entries VH and VL; also called humanized anti-IL17RB monoclonal antibody
Q: B1 was tested. Which Kd [1] did it give?
A: Its Kd is 0.546 nM.

Q: What about the koff [1] of the same binder?
A: Its koff is 9.98e-05 s⁻¹.

Q: What about the kon [1] of the same binder?
A: The kon was 183000 M⁻¹ s⁻¹.

Q: And the “OD 450 nm Absorption” value [2]?
A: The value was 0 OD450.

Q: And the “OD 450 nm Absorption” value [3]?
A: The value was 0.64 OD450.

Q: What about the “OD 450 nm Absorption” value [4] of the same binder?
A: The value was 0.01 OD450.

Q: What about the “OD 450 nm Absorption” value [5] of the same binder?
A: Its value is -0.02 OD450.

Q: What about the “OD 450 nm Absorption” value [6] of the same binder?
A: The value was 0.06 OD450.

Q: What about the “OD 450 nm Absorption” value [7] of the same binder?
A: Its value is -0.02 OD450.

Q: What about the “OD 450 nm Absorption” value [8] of the same binder?
A: The value was 0.07 OD450.

Q: What about the “OD 450 nm Absorption” value [9] of the same binder?
A: Its value is -0.04 OD450.

Q: And the “OD 450 nm Absorption” value [10]?
A: Its value is -0.04 OD450.

Q: And the “OD 450 nm Absorption” value [11]?
A: The value was -0.03 OD450.
